The target in the test is T1, FLAG-tagged wild-type (wt) ARRDC1 (Homo sapiens, UniProt Q8N5I2 1-433).
T1 construct: Expressed in 293T cells and immunoprecipitated with anti-FLAG; also called Flag-ARRDC1; arrestin domain-containing protein 1; not shown: FLAG tag
T1 sequence: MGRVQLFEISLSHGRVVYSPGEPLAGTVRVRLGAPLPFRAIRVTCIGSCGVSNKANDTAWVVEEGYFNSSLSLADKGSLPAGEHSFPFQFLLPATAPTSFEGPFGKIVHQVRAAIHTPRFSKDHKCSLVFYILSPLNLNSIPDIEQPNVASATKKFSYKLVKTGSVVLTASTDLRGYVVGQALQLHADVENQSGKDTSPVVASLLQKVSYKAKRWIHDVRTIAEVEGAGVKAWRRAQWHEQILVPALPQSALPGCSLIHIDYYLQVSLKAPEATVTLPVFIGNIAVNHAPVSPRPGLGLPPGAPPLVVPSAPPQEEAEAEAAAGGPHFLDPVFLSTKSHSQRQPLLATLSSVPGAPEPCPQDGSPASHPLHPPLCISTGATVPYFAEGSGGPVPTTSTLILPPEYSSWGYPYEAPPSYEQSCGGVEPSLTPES
In words: co-immunoprecipitation from transfected 293T cells, Western blot (FIG. 1D).

B1: HA-tagged mutant (M95A) TSG101 (other)
chain: MAVSESQLKKMVSKYKYRDLTVRETVNVITLYKDLKPVLDSYVFNDGSSRELMNLTGTIPVPYRGNTYNIPICLWLLDTYPYNPPICFVKPTSSATIKTGKHVDANGKIYLPYLHEWKHPQSDLLGLIQVMIVVFGDEPPVFSRPISASYPPYQATGPPNTSYMPGMPGGISPYPSGYPPNPSGYPGCPYPPGGPYPATTSSQYPSQPPVTTVGPSRDGTISEDTIRASLISAVSDKLRWRMKEEMDRAQAELNALKRTEEDLKKGHQKLEEMVTRLDQEVAEVDKNIELLKKKDEELSSALEKMENQSENNDIDEVIIPTAPLYKQILNLYAEENAIEDTIFYLGEALRRGVIDLDVFLKHVRLLSRKQFQLRALMQKARKTAGLSDLY
notes: Expressed in 293T cells; also called TSG101 M95A; not shown: HA tag
Regarding B1, the binding result is given as “no binding”.

These data come from patent US20180055768A1 (Harvard, published 2018).
